Reference: the supplement of paper PMC9112550, “Optimization of the antimicrobial peptide Bac7 by deep mutational scanning” (BMC Biology, 2022)

Tested on: Escherichia coli TOP10
Assay: shrunken log2 fold change of peptide-encoding DNA abundance (4.5 h post-induction vs induction); higher = less antimicrobial activity (less host growth inhibition)
Settings: time post-induction: 4.5 h; library: site-saturation at positions 5, 18, 19, 20
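Further: peptides expressed intracellularly from a pBAD plasmid library in pooled LB shake-flask culture, induced with 0.3% L-arabinose, DNA abundance read by NGS, three biological replicates, DESeq2 with apeglm shrinkage.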

| Sequence | shrunken log2 fold change |
| --- | --- |
| RRIRSRPPRLPRPRPRPEFFPRP | -0.0464 |
| RRIRFRPPRLPRPRPRPQNCPRP | -0.195 |
| RRIRHRPPRLPRPRPRPCEFPRP | -0.324 |
| RRIRPRPPRLPRPRPRPDANPRP | 0.172 |
| RRIRHRPPRLPRPRPRPCWPPRP | -0.106 |
| RRIRMRPPRLPRPRPRPSIDPRP | 0.789 |
| RRIRWRPPRLPRPRPRPVYGPRP | -0.083 |
| RRIRFRPPRLPRPRPRPWPPPRP | 1.11 |
| RRIRKRPPRLPRPRPRPQCPPRP | -0.000549 |
| RRIRNRPPRLPRPRPRPCDYPRP | -0.00992 |
| RRIRPRPPRLPRPRPRPNEVPRP | 0.292 |
| RRIRKRPPRLPRPRPRPEGEPRP | -0.0225 |
| RRIRTRPPRLPRPRPRPWGYPRP | -0.0354 |
| RRIRNRPPRLPRPRPRPKVDPRP | 0.147 |
| RRIRQRPPRLPRPRPRPVAKPRP | 0.2 |
| RRIRSRPPRLPRPRPRPQEYPRP | -0.257 |
| RRIRHRPPRLPRPRPRPQWGPRP | -0.149 |
| RRIRFRPPRLPRPRPRPFCGPRP | -0.0609 |
| RRIRERPPRLPRPRPRPGTGPRP | 0.229 |
| RRIRYRPPRLPRPRPRPTMGPRP | 0.0568 |
| RRIRPRPPRLPRPRPRPENMPRP | -0.395 |
| RRIRDRPPRLPRPRPRPEEYPRP | 0.0208 |

| Sequence | shrunken log2 fold change |
| --- | --- |
| RRIRWRPPRLPRPRPRPNVDPRP | -0.0535 |
| RRIRQRPPRLPRPRPRPLSDPRP | -0.0651 |
| RRIRVRPPRLPRPRPRPCIGPRP | -0.8 |
| RRIRGRPPRLPRPRPRPYEGPRP | -0.199 |
| RRIRCRPPRLPRPRPRPDKYPRP | -0.717 |
| RRIRSRPPRLPRPRPRPSIGPRP | 0.347 |
| RRIRRRPPRLPRPRPRPGTYPRP | -0.0906 |
| RRIRMRPPRLPRPRPRPPIVPRP | -0.112 |
| RRIRWRPPRLPRPRPRPIWCPRP | 0.151 |
| RRIRCRPPRLPRPRPRPADSPRP | -0.0251 |
| RRIRHRPPRLPRPRPRPIDKPRP | 0.0156 |
| RRIRVRPPRLPRPRPRPAVGPRP | 0.186 |
| RRIRKRPPRLPRPRPRPKGLPRP | -0.00973 |
| RRIRERPPRLPRPRPRPNISPRP | -1.14 |
| RRIRNRPPRLPRPRPRPCSLPRP | -0.262 |
| RRIRSRPPRLPRPRPRPCYEPRP | -0.167 |
| RRIRERPPRLPRPRPRPTTYPRP | -0.8 |
| RRIRWRPPRLPRPRPRPDDYPRP | 0.0299 |
| RRIRMRPPRLPRPRPRPCQWPRP | -0.152 |
| RRIRCRPPRLPRPRPRPVNGPRP | 1.74 |
| RRIRIRPPRLPRPRPRPSNGPRP | 0.0107 |
| RRIRRRPPRLPRPRPRPIADPRP | -0.0686 |

| Sequence | shrunken log2 fold change |
| --- | --- |
| RRIRHRPPRLPRPRPRPSCCPRP | -0.343 |
| RRIRGRPPRLPRPRPRPEYLPRP | 0.468 |
| RRIRPRPPRLPRPRPRPKCHPRP | 0.0622 |
| RRIRERPPRLPRPRPRPSYDPRP | -0.301 |
| RRIRGRPPRLPRPRPRPEVTPRP | 0.168 |
| RRIRYRPPRLPRPRPRPFTHPRP | -0.187 |
| RRIRMRPPRLPRPRPRPGISPRP | 0.0451 |
| RRIRTRPPRLPRPRPRPLYQPRP | -0.375 |
| RRIRARPPRLPRPRPRPESAPRP | 0.858 |
| RRIRCRPPRLPRPRPRPNGPPRP | -0.00954 |
| RRIRFRPPRLPRPRPRPPMMPRP | -0.0466 |
| RRIRIRPPRLPRPRPRPIEKPRP | -0.0304 |
| RRIRHRPPRLPRPRPRPTMSPRP | -0.11 |
| RRIRKRPPRLPRPRPRPYCTPRP | -0.19 |
| RRIRDRPPRLPRPRPRPNRSPRP | 0.0428 |
| RRIRNRPPRLPRPRPRPGCHPRP | -0.318 |
| RRIRFRPPRLPRPRPRPGMLPRP | -0.169 |
| RRIRERPPRLPRPRPRPEQHPRP | -0.0123 |
| RRIRVRPPRLPRPRPRPEDCPRP | -0.0557 |
| RRIRLRPPRLPRPRPRPGSPPRP | 0.475 |
| RRIRIRPPRLPRPRPRPLQRPRP | -0.106 |
| RRIRRRPPRLPRPRPRPDTMPRP | 0.0801 |

| Sequence | shrunken log2 fold change |
| --- | --- |
| RRIRTRPPRLPRPRPRPSGRPRP | 0.0348 |
| RRIRRRPPRLPRPRPRPQHDPRP | 0.478 |
| RRIRGRPPRLPRPRPRPMQRPRP | 1.29 |
| RRIRMRPPRLPRPRPRPSGAPRP | 1.13 |
| RRIRYRPPRLPRPRPRPDQSPRP | -0.0117 |
| RRIRLRPPRLPRPRPRPTRKPRP | 0.374 |
| RRIRYRPPRLPRPRPRPVPYPRP | -0.0727 |
| RRIRGRPPRLPRPRPRPMHFPRP | -0.0109 |
| RRIRVRPPRLPRPRPRPLCPPRP | -0.153 |
| RRIRARPPRLPRPRPRPQFGPRP | -0.217 |
| RRIRRRPPRLPRPRPRPSQMPRP | 0.0447 |
| RRIRVRPPRLPRPRPRPFFQPRP | -0.0276 |
| RRIRFRPPRLPRPRPRPDQRPRP | -0.325 |
| RRIRRRPPRLPRPRPRPYAKPRP | 0.106 |
| RRIRIRPPRLPRPRPRPKNVPRP | -0.139 |
| RRIRGRPPRLPRPRPRPWINPRP | -0.137 |
| RRIRIRPPRLPRPRPRPYHQPRP | 0.0196 |
| RRIRPRPPRLPRPRPRPDLFPRP | 0.0947 |
| RRIRHRPPRLPRPRPRPNHWPRP | -0.594 |
| RRIRMRPPRLPRPRPRPHATPRP | 2.78 |
| RRIRQRPPRLPRPRPRPFKRPRP | 0.0391 |
| RRIRSRPPRLPRPRPRPWEGPRP | -0.0466 |

| Sequence | shrunken log2 fold change |
| --- | --- |
| RRIRIRPPRLPRPRPRPHKKPRP | -0.0912 |
| RRIRRRPPRLPRPRPRPGGQPRP | 0.175 |
| RRIRVRPPRLPRPRPRPWSKPRP | -0.2 |
| RRIRVRPPRLPRPRPRPMKYPRP | -0.0836 |
| RRIRSRPPRLPRPRPRPCEGPRP | -0.00992 |
| RRIRERPPRLPRPRPRPSFKPRP | -0.401 |
| RRIRLRPPRLPRPRPRPSRHPRP | -0.415 |
| RRIRFRPPRLPRPRPRPKIHPRP | -0.557 |
| RRIRVRPPRLPRPRPRPVAGPRP | 0.0748 |
| RRIRARPPRLPRPRPRPKLQPRP | 0.64 |
| RRIRMRPPRLPRPRPRPIIHPRP | -0.136 |
| RRIRWRPPRLPRPRPRPAEAPRP | 0.0865 |
| RRIRNRPPRLPRPRPRPNKMPRP | -0.0283 |
| RRIRFRPPRLPRPRPRPFDHPRP | -0.281 |
| RRIRNRPPRLPRPRPRPAKCPRP | -0.384 |
| RRIRQRPPRLPRPRPRPSMFPRP | -0.667 |
| RRIRCRPPRLPRPRPRPIDNPRP | -0.755 |
| RRIRERPPRLPRPRPRPMFQPRP | -0.952 |
| RRIRLRPPRLPRPRPRPWYPPRP | -0.242 |
| RRIRGRPPRLPRPRPRPDPSPRP | 0.414 |
| RRIRRRPPRLPRPRPRPAWTPRP | 1.74 |
